In assay [1] the target is Vac14 from pig brain cytosol (UniProt F1S3E8). The experiment in a line: proteo-liposome recruitment, western blot band quantification. To be noted: 2 % input bar shown for reference, parent: est. 21, read off a plot.
Assay [2] has as its target PIKfyve from pig brain cytosol. The assay is described as above. The conditions noted are these: 2 % input bar shown for reference, parent: est. 38, read off a plot.

Chain of UniProt F1S3E8 (F1S3E8 entry or part of it): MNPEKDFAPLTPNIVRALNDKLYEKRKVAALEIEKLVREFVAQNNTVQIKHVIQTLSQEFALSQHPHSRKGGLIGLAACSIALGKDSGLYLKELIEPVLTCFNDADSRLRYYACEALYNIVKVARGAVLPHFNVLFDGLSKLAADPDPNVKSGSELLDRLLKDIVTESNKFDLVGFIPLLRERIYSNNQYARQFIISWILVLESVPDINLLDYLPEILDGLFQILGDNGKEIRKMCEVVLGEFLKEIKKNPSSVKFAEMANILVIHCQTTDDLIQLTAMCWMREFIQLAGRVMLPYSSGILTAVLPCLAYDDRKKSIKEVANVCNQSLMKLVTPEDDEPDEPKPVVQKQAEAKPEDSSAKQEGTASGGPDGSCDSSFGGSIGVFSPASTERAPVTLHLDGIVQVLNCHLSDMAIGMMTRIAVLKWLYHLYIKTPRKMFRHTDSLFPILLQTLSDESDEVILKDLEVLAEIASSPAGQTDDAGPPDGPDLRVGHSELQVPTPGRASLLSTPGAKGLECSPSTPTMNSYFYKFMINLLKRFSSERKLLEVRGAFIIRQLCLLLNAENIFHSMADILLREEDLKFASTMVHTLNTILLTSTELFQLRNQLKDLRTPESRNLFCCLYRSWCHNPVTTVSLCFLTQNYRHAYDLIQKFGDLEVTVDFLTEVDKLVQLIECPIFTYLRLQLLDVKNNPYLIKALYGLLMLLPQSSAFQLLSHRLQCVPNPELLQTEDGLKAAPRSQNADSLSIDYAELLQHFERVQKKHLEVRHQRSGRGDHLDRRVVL

As for “APP intracellular domain (AICD), full length AICD N36A; P37A”, the results for the response in assay [1] and in assay [2] were 3.5 a.u and 8.5 a.u, respectively.

As to “APP intracellular domain (AICD), full length AICD T38A; Y39A”, the response came to 0.7 a.u in assay [1] and 3 a.u in assay [2].

Regarding “APP intracellular domain (AICD), full length AICD Y34A; E35A”, the response in assay [1] came out at 1 a.u; in assay [2], 2.5 a.u.
